# In the nanobody polyreactivity screen of Harvey et al. (2022):
# Experiment: yeast display, Sf9 membrane polyspecificity reagent, FACS + sequencing; frameworks hold sequencing errors
# Method in brief: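 Galactose induction of a Saccharomyces cerevisiae BJ5465 synthetic nanobody display library ran 36–48 hours. The cells were then stained for 1 hour at 4 °C with 10% biotinylated, detergent-solubilized Sf9 membrane reagent, pulled down on streptavidin microbeads and FACS-sorted into low and high (top ~1%) gates on expression and reagent-binding fluorescence. Labels for polyreactivity follow the gate of origin.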
row,Sequence,polyreactivity (PSR sort gate)
1,QVQLVETGVGLVQAGGSLRLSCAASGRIFLVYAMGWYRQAPGKERELVAAISWRGGRTYYADSVKGRFTISRDNAKNTVYLQMNSLIPEDTAVYYCAAASKYSQFEYDYWGQGTQVTVSS,high polyreactivity
2,QVQLVETGVGLVQAGGSLRLSCAASGSTFPGYAMGWYRQAPGKERELVAAISASGGSTYYADSVKGRFTISRDIAKNTVYLQMNSLKPEDTEVYYCAKVLSRGASAHDYWGLGTQVTVSS,low polyreactivity
3,QVQLVETRGGLVQAGGSLRLSCAASGSIFLQNAMGWYRQAPGKERELVAAITNGGSTNYADSVKGRFTISRDNAKNTVYLQMNSLKPEDTAVYYCAAYPLYTGSYDRGGYWGQGTQVTVSS,low polyreactivity
4,QVQLVETVGGLDQAGGSLLLSCAASGRIFWENALGWYRQAPGKERELVAAISDSVVITYYADSVKGRFTISRDNAKNTVYLQMNSLKPEDTAVYDCAADKRGSVYLSSFWMDYWGQGTQVTVSS,low polyreactivity
5,QVQLVEYGGGLVQAGGSLRLSCAASGRIFGYYTMGWYRQAPRKERELVAAITSSGGRTYYADSVKGRFTISRDNAKNTVYLQMNSLKPEDTAVYYCNKVTFGYAYWRYDGYDYWGQGTQVTVSS,low polyreactivity
6,QVQLVKSGGGLVQAGGSLRLSCAASGRIFVGYVMGWYIQAPGKARELVAAIDSGRRTNYADSVKGRFTISRDNAKNTVYLQINSLKPEDTAVYYCNREAAHGSLRWTEMEYWGQGTQVTVSS,low polyreactivity
7,QVQLVQSGGGIVQEGGSLRLSCAASGSTFYRNTMGWYRQAPGKERELVAAISRTGASTHYADSVKGRFTISRDNAKNTVYFQMNSLKPEDTAVYYCNAVPAIGKYYGGGYWGQGTQVTVSS,high polyreactivity
8,QVQLVQSGGGLVQAGGRLRLSCAASGRIFGFYAMGWYRQAPGKERELVAAITSTGRTYYADSVKGRFTISRDNAKNTVYLQMNSLKPEDTAVYYCAAGYGRADSGWVRMNYWGQGTQVTVSS,high polyreactivity
9,QVQLVQSGGGLVQAGGSLRLSCAASGITFIHNAMGWYRQAPGKERELVAAITTSDGSTYYADSVKGRFTISRDNAKYTVYFQMNSLTPEDTAVYYCAARGRHSGYYSFPYYYWGQGTQVTVSS,low polyreactivity
10,QVQLVQSGGGLVQAGGSLRLSCAASGRTIWANAMGWYRQAPGKESELVAAITTSGGSTNYADSVKGRFTISRDNAKNTVYLQMNSLKPEDTAVYYCNADPTYHVVNGVGYWGQGTQVTVSS,low polyreactivity
11,QVQLVQSGGGLVQAGGSLRLSCAASGRTIYSKAMGWYRQAPGKERELVAAITSTDDSTYYADSVKGRFTISRDNAKNTVYLQMNSLKPEDTAVYYCNTDGLIAIRGLWWVEYDYWGQGTQVTVSS,low polyreactivity
12,QVQLVQSGGGLVQAGGSLRLSCAASGRTLWSYVMGWYRQAPGKERELVAAITSGGTTYYADSVKGRFTISRDNAKNTVYLQMNSLKPEDTAVYYCNVYTKFVYAYDYWGQGTQVTVSS,high polyreactivity
13,QVQLVQSGGGLVQAGGSLRLSCAASGSIFAVYGMGWNRQAPGKERELVASISTGVSTNYADSVKGRFTISRDNAKNTVYLQRHSLKPEDTAVYYCAKTIYKSRVSYGSWGQGTQVTVSS,low polyreactivity
14,QVQLVQSGGGLVQAGGSLRLSCAPSGSISTPYTMGWYRQAPGKERELVAAISWIGDTTSYADSVKGRYTISRDNAKNTVYLQMKSLKPEDTAVYYCDADYLWYNYAGQVDQDYDYWGQGTQVTVSS,low polyreactivity
15,QVQLVQSGGGLVQAGGSLRLSSAASGRIFATNAMGWYRQAPGKERELVAAITTSGGSTYYADSVKGRFTISRDNAKNTVYLHLNSLKPEDTAVYYCAARRGPNSYRWRMGYWGHGTQVTVSS,high polyreactivity
16,QVQLVQSGGGLVQAGGSLSLSCAASVFIFYYYDMGWYIQAPGKERELVAAISGRDGSTYYADSVKGRFTISRDNAKNTVYLQMNSLKPEDTAVYYCAAANRSRSIGSQYGYWGQGTQVTVSS,high polyreactivity

row,Sequence,polyreactivity (PSR sort gate)
1,QVQLVQSGRGLVHAGCSLRLSCAASGRIYAGNAMGLYRQPPGKERELFATITSGGSTYYADSVKGRFTISRDNAKNTVYLQMNSLKPEDTAVYYCNAVNYWVKSRFSLTWEFAVVYWGQGTQVTVSS,low polyreactivity
2,QVQLVQSRGGLVQAGGSLRISCAASGRIFNPNAMRWDRQAPVKQRELVAAITRGGSTNYADSVKGRLTISRDNAKNTVYLQMISLQPEVSAVLYCAADFKTWYCDFDYCGQGTQVTVSS,high polyreactivity
3,QVQLVQSRGVLVQAGGSLRLSCAASGSIFKYNAMGWYRQAPGKERELVAAITYSGGSTYYADSVKGRFTISRDNAKNTVYLQMNSLKPEDTAVYYCNAYRRFSAFDYWGQGTQVTVSS,high polyreactivity
4,QVQLVSGGGLVQAGGSLRLSCAASGRIFVSYAMGWYRQAPGKERELVADISSDGSTNYADSVKGRFTISRDNAKNTVYLQMNSLKPEDTAVYYCAVEVVRVYRYDYWGQGTQVTVSS,low polyreactivity
5,QVQLVSSGGGLVQAGGSLSLSCAASGRTFCINAMGWYRQAPGKERELVAAIRTGGSTYYADSVKGRFTISRDNAKNTVYLQMNSLKPEDTAVYYCAAVLYHNRKTEYTYGYWGQGTQVTVSS,high polyreactivity
6,QVQLVVSGGGLVQAAGSLRLSCAASGLTFANYVMGWYRQAPGKERELVASISISGGSTYYADSEKGRFTISRDNAKNTVYLQMNSLKPEDTAVYYCAASFVSSYQYAYWGQVTQVTVSS,high polyreactivity
7,QVQLVVSGGGLVQAGGSLRLSCAASGSTFYAYAMGWYRQAPGKERELVARIRWRGGRTYYADSVKGRFTISRDNAKNTVYLRMNSLKPEDTAVYYCNRGYYSYYGRYYYWGQGTQVTLSS,high polyreactivity
8,QVQLVVSGGGLVQAGGSLRLSCAASGYTFQGYAMGWYRQAPGKERELVAGISRSGGRTYYADSVKGRFTISRDNAKNTVYLQMNSLKPEDTAVYYCASTYPGAIRDYWGQGTQVTVSS,high polyreactivity
9,QVQLVVSGGGLVQAGGSLRLSWAASGSIFERYAMGLYRQAPGKERELVARISRSGTSTYYADSVKGRFTISRDNAKNSVYDQMNSLQPEDTAVYYCNATGSRYSGYQRCHYWRYDYLGQGTQVTVSS,high polyreactivity
10,QVQLVVSGGGLVQAGGTLRLSCAASGSILSDNGMGWYRQAPGKERELVASIRTGDITKYADCVKGRFTISRDNAKNTVDLQMTSLKPEDTAVYYCAAAGRVQYTRKYYGWRNRNDYWGQGTQVTVSS,low polyreactivity
11,QVQMQESGGGLVQAGGSLRLSCAASCTISQEDWMGWYRQAPGKEREFVAAIGLGSNTNYADSLKGRFTISRDNAKNTVYLQMNSLKPEDTAVYYCAVSVWQYSDHVFRGQGTQVTVSS,low polyreactivity
12,QVQMQESGGGLVQAGGSLRLSCAASGSISRYYDMGWYRQAPGKEREFVAGISGGAITYYADSVKGRFTISRDNAKNSVYLQMNSLNREDTAVYYCAADTGVYQYHSYWGQGTQVTVSS,low polyreactivity
13,QVQPQESGGGPVQACGSLRLSCAASGNILDADILGWYRLVPGIERELVASITDGGSTNYAESVKGRFTIRRDNAKNTVYLQMNSLIPEDTAVYYCAVWSLGRWRHYYWGQGTQVTVSS,low polyreactivity
14,QVQQQESGGGLVQAGGSLRLSCAASGSISRLDYMGWYRQATGKERELVAAIDNGSTTYYADSVKGRLTISRDNAKYTVYLQMNSLKPEDNAVYFCAAVRGRGGTHAYWGQGTQVTVSG,low polyreactivity
15,QVQQQESGGGLVQAGGSLRLSCAASGYISVVIGMGWYRQSPGKERELVASIAYGAITYYTDSVKGRFTISRDYAKNTEYLQMNSLKAEDTAVYYCAADQPPLAYHWYWGQGTQATVSS,high polyreactivity
